Experimental data: patent US20090156483A1 (IPSEN PHARMA S A S, published 2009)
*1 amine or outer side, *2 acyl side, *3 side chain or, on linkers, in order; H or OH if unused. Where no end group is shown, it is not given here. [ ]: non-standard residue; d: D form. The star is where a group is joined. Glu(NH-hexyl) = N5-hexyl-L-glutamine, CCCCCCNC(=O)CC[C@H](N[*:1])C(=O)[*:2]; Biotin = O=C1N[C@H]2[C@H](CS[C@H]2CCCCC(=O)*)N1; Myristoyl = CCCCCCCCCCCCCC(=O)*; Octanoyl = CCCCCCCC(=O)*; Aib = CC(C)(N)C(=O)O

B1: (Aib^2,10,Glu(NH-hexyl)^3,17)hGhrelin(1-28)-NH2 (peptide)
peptide: G[Aib][Glu(NH-hexyl)]FLSPEH[Aib]RVQQRK[Glu(NH-hexyl)]SKKPPAKLQPR-NH2
modifications: N-terminus assumed
SMILES: CCCCCCNC(=O)CC[C@H](NC(=O)[C@H](CCCCN)NC(=O)[C@H](CCCNC(=N)N)NC(=O)[C@H](CCC(N)=O)NC(=O)[C@H](CCC(N)=O)NC(=O)[C@@H](NC(=O)[C@H](CCCNC(=N)N)NC(=O)C(C)(C)NC(=O)[C@H](Cc1c[nH]cn1)NC(=O)[C@H](CCC(=O)O)NC(=O)[C@@H]1CCCN1C(=O)[C@H](CO)NC(=O)[C@H](CC(C)C)NC(=O)[C@H](Cc1ccccc1)NC(=O)[C@H](CCC(=O)NCCCCCC)NC(=O)C(C)(C)NC(=O)CN)C(C)C)C(=O)N[C@@H](CO)C(=O)N[C@@H](CCCCN)C(=O)N[C@@H](CCCCN)C(=O)N1CCC[C@H]1C(=O)N1CCC[C@H]1C(=O)N[C@@H](C)C(=O)N[C@@H](CCCCN)C(=O)N[C@@H](CC(C)C)C(=O)N[C@@H](CCC(N)=O)C(=O)N1CCC[C@H]1C(=O)N[C@@H](CCCNC(=N)N)C(N)=O
notes: Synthetic ghrelin analog; calculated MW 3407.10, found 3407.20; also called #58
B2: (Ac-Gly^1,Aib^2,Glu(NH-hexyl)^3,17)hGhrelin(1-28)-NH2 (peptide)
peptide: GXEFLSPEHQRVQQRKESKKPPAKLQPR
modifications: N-terminal acetyl (Ac-Gly at 1); Aib at 2; Glu(NH-hexyl) at 3 and 17; C-terminal amide
notes: Synthetic ghrelin analog; calculated MW 3492.17, found 3492.00
B3: (Aib^2,Lys(myristyl)^17)hGhrelin(1-28)-NH2 (peptide)
peptide: G[Aib]S(Octanoyl)FLSPEHQRVQQRKK(Myristoyl)SKKPPAKLQPR-NH2
modifications: N-terminus assumed
SMILES: CCCCCCCCCCCCCC(=O)NCCCC[C@H](NC(=O)[C@H](CCCCN)NC(=O)[C@H](CCCNC(=N)N)NC(=O)[C@H](CCC(N)=O)NC(=O)[C@H](CCC(N)=O)NC(=O)[C@@H](NC(=O)[C@H](CCCNC(=N)N)NC(=O)[C@H](CCC(N)=O)NC(=O)[C@H](Cc1c[nH]cn1)NC(=O)[C@H](CCC(=O)O)NC(=O)[C@@H]1CCCN1C(=O)[C@H](CO)NC(=O)[C@H](CC(C)C)NC(=O)[C@H](Cc1ccccc1)NC(=O)[C@H](COC(=O)CCCCCCC)NC(=O)C(C)(C)NC(=O)CN)C(C)C)C(=O)N[C@@H](CO)C(=O)N[C@@H](CCCCN)C(=O)N[C@@H](CCCCN)C(=O)N1CCC[C@H]1C(=O)N1CCC[C@H]1C(=O)N[C@@H](C)C(=O)N[C@@H](CCCCN)C(=O)N[C@@H](CC(C)C)C(=O)N[C@@H](CCC(N)=O)C(=O)N1CCC[C@H]1C(=O)N[C@@H](CCCNC(=N)N)C(N)=O
notes: Synthetic ghrelin analog; calculated MW 3577.35, found 3577.2; also called #217
B4: (Aib^2,8,Ser^3,Glu(NH-hexyl)^17)hGhrelin(1-28)-NH2 (peptide)
peptide: GXSFLSPXHQRVQQRKESKKPPAKLQPR
modifications: Aib at 2 and 8; Ser at 3 (plain, not acylated); Glu(NH-hexyl) at 17; C-terminal amide
notes: Synthetic ghrelin analog; calculated MW 3280.91 (fits an unacylated Ser 3), found 3281.60; also called #219
B5: (Ac-Gly^1,Aib^2,8,Glu(NH-hexyl)^3,17)hGhrelin(1-28)-NH2 (peptide)
peptide: GXEFLSPXHQRVQQRKESKKPPAKLQPR
modifications: N-terminal acetyl (Ac-Gly at 1); Aib at 2 and 8; Glu(NH-hexyl) at 3 and 17; C-terminal amide
notes: Synthetic ghrelin analog; calculated MW 3448.16, found 3447.98
B6: (Ac-Gly^1,Aib^2,10,Glu(NH-hexyl)^3,17)hGhrelin(1-28)-NH2 (peptide)
peptide: Ac-G[Aib][Glu(NH-hexyl)]FLSPEH[Aib]RVQQRK[Glu(NH-hexyl)]SKKPPAKLQPR-NH2
SMILES: CCCCCCNC(=O)CC[C@H](NC(=O)[C@H](CCCCN)NC(=O)[C@H](CCCNC(=N)N)NC(=O)[C@H](CCC(N)=O)NC(=O)[C@H](CCC(N)=O)NC(=O)[C@@H](NC(=O)[C@H](CCCNC(=N)N)NC(=O)C(C)(C)NC(=O)[C@H](Cc1c[nH]cn1)NC(=O)[C@H](CCC(=O)O)NC(=O)[C@@H]1CCCN1C(=O)[C@H](CO)NC(=O)[C@H](CC(C)C)NC(=O)[C@H](Cc1ccccc1)NC(=O)[C@H](CCC(=O)NCCCCCC)NC(=O)C(C)(C)NC(=O)CNC(C)=O)C(C)C)C(=O)N[C@@H](CO)C(=O)N[C@@H](CCCCN)C(=O)N[C@@H](CCCCN)C(=O)N1CCC[C@H]1C(=O)N1CCC[C@H]1C(=O)N[C@@H](C)C(=O)N[C@@H](CCCCN)C(=O)N[C@@H](CC(C)C)C(=O)N[C@@H](CCC(N)=O)C(=O)N1CCC[C@H]1C(=O)N[C@@H](CCCNC(=N)N)C(N)=O
notes: Synthetic ghrelin analog; calculated MW 3449.14, found 3449.20; also called #146
B7: (Ac-Gly^1,Aib^2,10,Glu(NH-hexyl)^3,Lys(biotinyl)^17)hGhrelin(1-28)-NH2 (peptide)
peptide: Ac-G[Aib][Glu(NH-hexyl)]FLSPEH[Aib]RVQQRKK(Biotin)SKKPPAKLQPR-NH2
SMILES: CCCCCCNC(=O)CC[C@H](NC(=O)C(C)(C)NC(=O)CNC(C)=O)C(=O)N[C@@H](Cc1ccccc1)C(=O)N[C@@H](CC(C)C)C(=O)N[C@@H](CO)C(=O)N1CCC[C@H]1C(=O)N[C@@H](CCC(=O)O)C(=O)N[C@@H](Cc1c[nH]cn1)C(=O)NC(C)(C)C(=O)N[C@@H](CCCNC(=N)N)C(=O)N[C@H](C(=O)N[C@@H](CCC(N)=O)C(=O)N[C@@H](CCC(N)=O)C(=O)N[C@@H](CCCNC(=N)N)C(=O)N[C@@H](CCCCN)C(=O)N[C@@H](CCCCNC(=O)CCCC[C@@H]1SC[C@@H]2NC(=O)N[C@@H]21)C(=O)N[C@@H](CO)C(=O)N[C@@H](CCCCN)C(=O)N[C@@H](CCCCN)C(=O)N1CCC[C@H]1C(=O)N1CCC[C@H]1C(=O)N[C@@H](C)C(=O)N[C@@H](CCCCN)C(=O)N[C@@H](CC(C)C)C(=O)N[C@@H](CCC(N)=O)C(=O)N1CCC[C@H]1C(=O)N[C@@H](CCCNC(=N)N)C(N)=O)C(C)C
notes: Synthetic ghrelin analog; calculated MW 3591.32, found 3591.50; also called #166
B8: (Aib^1,2,10,Glu(NH-hexyl)^3,17)hGhrelin(1-28)-NH2 (peptide)
peptide: [Aib][Aib][Glu(NH-hexyl)]FLSPEH[Aib]RVQQRK[Glu(NH-hexyl)]SKKPPAKLQPR-NH2
modifications: N-terminus assumed
SMILES: CCCCCCNC(=O)CC[C@H](NC(=O)[C@H](CCCCN)NC(=O)[C@H](CCCNC(=N)N)NC(=O)[C@H](CCC(N)=O)NC(=O)[C@H](CCC(N)=O)NC(=O)[C@@H](NC(=O)[C@H](CCCNC(=N)N)NC(=O)C(C)(C)NC(=O)[C@H](Cc1c[nH]cn1)NC(=O)[C@H](CCC(=O)O)NC(=O)[C@@H]1CCCN1C(=O)[C@H](CO)NC(=O)[C@H](CC(C)C)NC(=O)[C@H](Cc1ccccc1)NC(=O)[C@H](CCC(=O)NCCCCCC)NC(=O)C(C)(C)NC(=O)C(C)(C)N)C(C)C)C(=O)N[C@@H](CO)C(=O)N[C@@H](CCCCN)C(=O)N[C@@H](CCCCN)C(=O)N1CCC[C@H]1C(=O)N1CCC[C@H]1C(=O)N[C@@H](C)C(=O)N[C@@H](CCCCN)C(=O)N[C@@H](CC(C)C)C(=O)N[C@@H](CCC(N)=O)C(=O)N1CCC[C@H]1C(=O)N[C@@H](CCCNC(=N)N)C(N)=O
notes: Synthetic ghrelin analog; calculated MW 3435.16, found 3435.00; also called #70
B9: (Ac-Aib^1,Aib^2,10,Glu(NH-hexyl)^3,17)hGhrelin(1-28)-NH2 (peptide)
peptide: Ac-[Aib][Aib][Glu(NH-hexyl)]FLSPEH[Aib]RVQQRK[Glu(NH-hexyl)]SKKPPAKLQPR-NH2
SMILES: CCCCCCNC(=O)CC[C@H](NC(=O)[C@H](CCCCN)NC(=O)[C@H](CCCNC(=N)N)NC(=O)[C@H](CCC(N)=O)NC(=O)[C@H](CCC(N)=O)NC(=O)[C@@H](NC(=O)[C@H](CCCNC(=N)N)NC(=O)C(C)(C)NC(=O)[C@H](Cc1c[nH]cn1)NC(=O)[C@H](CCC(=O)O)NC(=O)[C@@H]1CCCN1C(=O)[C@H](CO)NC(=O)[C@H](CC(C)C)NC(=O)[C@H](Cc1ccccc1)NC(=O)[C@H](CCC(=O)NCCCCCC)NC(=O)C(C)(C)NC(=O)C(C)(C)NC(C)=O)C(C)C)C(=O)N[C@@H](CO)C(=O)N[C@@H](CCCCN)C(=O)N[C@@H](CCCCN)C(=O)N1CCC[C@H]1C(=O)N1CCC[C@H]1C(=O)N[C@@H](C)C(=O)N[C@@H](CCCCN)C(=O)N[C@@H](CC(C)C)C(=O)N[C@@H](CCC(N)=O)C(=O)N1CCC[C@H]1C(=O)N[C@@H](CCCNC(=N)N)C(N)=O
notes: Synthetic ghrelin analog; calculated MW 3477.19, found 3477.40; also called #158
B10: (Lys(biotinyl)^17)hGhrelin(1-28)-NH2 (peptide)
peptide: GSS(Octanoyl)FLSPEHQRVQQRKK(Biotin)SKKPPAKLQPR-NH2
modifications: N-terminus assumed
SMILES: CCCCCCCC(=O)OC[C@H](NC(=O)[C@H](CO)NC(=O)CN)C(=O)N[C@@H](Cc1ccccc1)C(=O)N[C@@H](CC(C)C)C(=O)N[C@@H](CO)C(=O)N1CCC[C@H]1C(=O)N[C@@H](CCC(=O)O)C(=O)N[C@@H](Cc1c[nH]cn1)C(=O)N[C@@H](CCC(N)=O)C(=O)N[C@@H](CCCNC(=N)N)C(=O)N[C@H](C(=O)N[C@@H](CCC(N)=O)C(=O)N[C@@H](CCC(N)=O)C(=O)N[C@@H](CCCNC(=N)N)C(=O)N[C@@H](CCCCN)C(=O)N[C@@H](CCCCNC(=O)CCCC[C@@H]1SC[C@@H]2NC(=O)N[C@@H]21)C(=O)N[C@@H](CO)C(=O)N[C@@H](CCCCN)C(=O)N[C@@H](CCCCN)C(=O)N1CCC[C@H]1C(=O)N1CCC[C@H]1C(=O)N[C@@H](C)C(=O)N[C@@H](CCCCN)C(=O)N[C@@H](CC(C)C)C(=O)N[C@@H](CCC(N)=O)C(=O)N1CCC[C@H]1C(=O)N[C@@H](CCCNC(=N)N)C(N)=O)C(C)C
notes: Synthetic ghrelin analog; calculated MW 3595.27, found 3594.90; also called #78

Each binder was assayed against T1, human GH secretagogue receptor (human, UniProt Q92847 1-366) (assay: radioligand competition, (125I)ghrelin on membranes of CHO-K1 cells expressing hGHS-R).
T1 construct: whole, on cells; the Ca2+ assay used the whole cells; also called hGHS-R; ghrelin receptor
T1 sequence (Q92847 whole entry): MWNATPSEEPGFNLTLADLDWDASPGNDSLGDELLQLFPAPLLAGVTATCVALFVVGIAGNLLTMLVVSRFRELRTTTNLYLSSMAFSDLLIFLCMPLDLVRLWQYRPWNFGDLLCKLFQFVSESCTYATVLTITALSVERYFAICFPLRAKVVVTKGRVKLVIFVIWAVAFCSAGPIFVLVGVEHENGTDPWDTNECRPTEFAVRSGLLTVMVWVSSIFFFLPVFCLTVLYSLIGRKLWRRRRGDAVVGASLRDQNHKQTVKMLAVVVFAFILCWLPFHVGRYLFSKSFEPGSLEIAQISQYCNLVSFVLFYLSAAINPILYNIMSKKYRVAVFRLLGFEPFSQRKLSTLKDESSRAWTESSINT
Description: Membranes for radioligand binding studies can be and were prepared by homogenization of the foregoing CHO-K1 cells expressing the human recombinant GHS receptor in about 20 ml of ice-cold 50 mM Tris-HCl with a Brinkman Polytron® (Brinkman®, Westbury, N.Y., U.S.A.) at setting 6 for about 15 seconds. The homogenates were washed twice by centrifugation (39,000 g/10 minutes) and the final pellets were resuspended in about 50 mM Tris-HCl containing 2.5 mM MgCl₂ and 0.1% bovine serum albumin (BSA). For the selected assay, aliquots of approximately 0.4 ml were incubated with 0.05 nM (¹²⁵I)ghrelin (˜2000 Ci/mmol; Perkin Elmer Life Sciences@, Boston, Mass., U.S.A.) with and without 0.05 ml of unlabeled competing test peptide. After approximately 60 minutes at 4° C., the bound (¹²⁵I)ghrelin was separated from the free ghrelin by rapid filtration through GF/C filters (available from Brandel®, Gaithersburg, Md., U.S.A.) which were pre-soaked in 0.5% polyethyleneimine/0.1% BSA. The filters were then washed 3 times with 5-ml aliquots of ice-cold 50 mM Tris-HCl and 0.1% BSA. The bound radioactivity trapped on the filters was counted by gamma spectrometry (using a spectrometer from Wallace LKB®, Gaithersburg, Md., U.S.A.). Specific binding was determined by subtracting (¹²⁵I)ghrelin bound in the presence of 1000 nM ghrelin (available from Bachem®, Torrence, Calif., U.S.A.) from the total (¹²⁵I)ghrelin bound.
A selection of the preferred embodiments was tested using the receptor binding assay discussed above and the results are reported in Table 2 presented below.
With B1 the Ki was 0.4 nM.
With B2 the Ki was 1.68 nM.
In the case of B3, the Ki is reported as 0.16 nM.
Binder B4 has a Ki of 214 nM.
B5 was tested, and the Ki was 2.94 nM.
In the case of B6, the Ki is reported as 0.99 nM.
Binder B7 has a Ki of 1.28 nM.
With B8 the Ki was 0.63 nM.
With B9 the Ki was 24.4 nM.
B10 gave a Ki of 0.07 nM.
